Positions count from the first letter of the chain named. Ends that are not written are not given here.
What was measured:
[1] = target: T1, human ASIC1a F302A (human) (UniProt P78348)
T1 sequence: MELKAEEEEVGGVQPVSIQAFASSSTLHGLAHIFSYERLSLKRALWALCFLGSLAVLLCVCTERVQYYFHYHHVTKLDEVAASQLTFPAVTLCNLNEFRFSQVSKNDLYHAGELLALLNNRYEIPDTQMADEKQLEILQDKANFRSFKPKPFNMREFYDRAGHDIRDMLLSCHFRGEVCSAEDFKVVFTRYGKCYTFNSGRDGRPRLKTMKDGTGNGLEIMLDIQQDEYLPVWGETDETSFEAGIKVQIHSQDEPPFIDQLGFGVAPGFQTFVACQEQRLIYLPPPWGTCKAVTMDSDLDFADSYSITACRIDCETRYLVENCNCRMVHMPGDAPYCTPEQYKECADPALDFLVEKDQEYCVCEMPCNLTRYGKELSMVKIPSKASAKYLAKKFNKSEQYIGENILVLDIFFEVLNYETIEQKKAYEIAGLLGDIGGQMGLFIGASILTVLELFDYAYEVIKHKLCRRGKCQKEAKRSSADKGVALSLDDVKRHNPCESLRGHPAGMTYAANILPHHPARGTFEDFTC

[2] = target: T2, human acid-sensing ion channel 1a, wild type (human) (UniProt P78348)
T2 sequence: T1 sequence with A302F

[3] = target: T2, human acid-sensing ion channel 1a, wild type (human); remark: listed apart in the source
[4] = target: T3, human ASIC1a N416C (human) (UniProt P78348)
T3 sequence: T1 sequence with A302F, N416C

EC50 of the FRRFa-mediated sustained current induction, two-electrode voltage-clamp [1]: 11 µM
EC50 of the induction of a sustained current (I (sust)/I (peak) at pH5) by FRRFa, two-electrode voltage-clamp, Xenopus oocytes [2]: 37 μM
association rate constant kon from the time course of appearance of the sustained current fraction with 50 μM FRRFa pre-applied at pH7.4, two-electrode voltage-clamp [2]: 162 s^−1 M^−1
rate of disappearance of the sustained current after a 50-s incubation with 50 μM FRRFa (rate of unbinding), two-electrode voltage-clamp [2]: 0.025 s⁻¹
koff from the time course of disappearance of the FRRFa-induced sustained current, WT in the direct comparison with N416C [3]: 0.029
EC50 of FRRFa for the I (sust)/I (peak) ratio increase at pH5, two-electrode voltage-clamp [4]: 6 μM
koff from the time course of disappearance of the FRRFa-induced sustained current after washout of 50 μM FRRFa [4]: 0.027 s⁻¹
Binder: FRRF-NH2 [FRRFa (Phe-Arg-Arg-Phe-amide)]
